Assay results from article PMC2659241 (The Journal of Biological Chemistry, 2009).

Biological target: Recombinant human moesin FERM domain (human, UniProt P26038 2-295)
Experiment: cross-linking

Recombinant human moesin FERM domain, sequence (P26038 2-295): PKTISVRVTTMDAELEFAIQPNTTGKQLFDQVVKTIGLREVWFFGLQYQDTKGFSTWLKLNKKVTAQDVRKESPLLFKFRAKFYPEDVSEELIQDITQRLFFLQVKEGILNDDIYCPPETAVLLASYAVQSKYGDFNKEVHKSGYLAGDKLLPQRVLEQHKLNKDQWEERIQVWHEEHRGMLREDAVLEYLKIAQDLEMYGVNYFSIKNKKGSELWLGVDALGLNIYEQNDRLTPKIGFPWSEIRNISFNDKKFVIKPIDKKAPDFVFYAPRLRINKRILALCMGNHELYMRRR

stoichiometry N: 1
Binder: RRLKKGKKSKRSMNDPY [L-selectin cytoplasmic tail peptide]
